Experimental findings from patent US9504759B2, “Surface modified proteinaceous spherical particles and uses thereof” (BAR-ILAN UNIVERSITY, priority 2011, dated 2016) are described below.

Series [1] deals with T1, Aβ40 (Homo sapiens, UniProt P05067).
T1 construct: incubating fresh monomerized (non-aggregated) solutions of Aβ40
The series is classed as biochemical. To be noted: for effect on rate (kinetics) of Aβ aggregation: ThT assay monitored for three days of incubation; for effect on Aβ aggregation (ThT fluorescence): molar ratio of Aβ to peptide or peptide equivalent 1:2, 1:4, 1:6.5, SMOP BSA:KLVFF 1:500, three days, FIG. 2A.
Method: In addition, an indirect assay (ThT [Thioflavin T] assay) was performed as follows. […] The fluorescence is measured and correlated to presence of amyloid plaque formations. Agents which bind and inhibit amyloid plaque formation decrease fluorescence of ThT. The inhibitory activity of KLVFF (SEQ ID NO 1)-modified SMOPs on Aβ40 aggregation was determined in black 96-well flat-bottom plates by incubating fresh monomerized (non-aggregated) solutions of Aβ40 (33 micromolar (μM), 15 μl)with different preparations of the SMOPs (25 μl, Table 1) in PBS. PBS was added to reach a volume of 50 μl, giving a final concentration of 10 μM for Aβ40. […] The plates were sealed with aluminum foil and incubated while shaking at 750 rpm at 37° C. for 72 hours to induce aggregation. Following the incubation, a solution of ThT (24 μM, 150 μl) in glycine buffer (50 millimolar (mM), pH 8.5) was added to each well and the fluorescence of amyloid-bound ThT was immediately measured using a plate reader (Infinite M200, Tecan, Switzerland) at excitation and emission wavelengths of 430 and 492 nm, respectively. The ThT solution was freshly prepared by diluting a ThT stock solution (1 mM, in water) with glycine buffer (50 mM, pH 8.5). Experiments were performed in quadruplicate.
To evaluate the inhibitory effect of KLVFF (SEQ ID NO 1)-modified SMOPs on Aβ aggregation and kinetics, soluble Aβ40 (0.5 nanomol, nmol) was incubated in the absence and presence of different preparations of the SMOPs. Amyloid plaque formation was then monitored by a ThT assay for three days of incubation.

Series [2] has as its target T1, Aβ40. The series can be described thus: TEM analysis of samples taken from the ThT assay. The series is classed as biochemical. To be noted: 72 hour incubation.
Series [3] concerns the target T2, FITC-Aβ40 (Homo sapiens, UniProt P05067).
T2 construct: incubated with soluble FITC-Aβ40
The experiment in a line: Direct in vitro binding assay with FITC-Aβ40 (fluorescent microscopy, FACS). To be noted: soluble FITC-Aβ40 in PBS at 37° C., after extensive washing; fluorescent microscopy and FACS. As for the experimental part:
Binding of KLVFF (SEQ ID NO 1)-modified SMOP to Aβ was assessed using a fluorescent modified Aβ known as FITC-Aβ40 (fluorescein isothiocyanate) in a direct in vitro assay. In order to confirm that the conjugated KLVFF (SEQ ID NO 1) fragments on SMOPs preserved their recognition capability to bind full length Aβ following the sonochemical process and SMOP generation, KLVFF (SEQ ID NO 1)-modified SMOPs were incubated with soluble FITC-Aβ40 (25 μ, 0.5 nanomolar, nM) in PBS at 37° C. for different periods under constant agitation (750 revolutions per minute (rpm)). At each time point, samples were diluted with cold PBS and the microspheres were washed twice with cold PBS. Ten thousand particles were then analyzed immediately by FACS.
As controls, proteinaceous SMOP without surface modification (prepared as in example 1A, without the addition of a KLVFF (SEQ ID NO 1) peptide) (naked BSA spheres) were prepared. FVKLF-modified SMOP was also prepared as a control, as in Example 1C.

Series [4] relates to murine microglia (BV-2) cells. The experiment in a line: Phagocytosis by murine microglia (BV-2) cells (confocal microscopy, SEM, FACS). The format is cell-based. The note with it: LPS-treated cells, 30 minutes exposure.
The test system of series [5] is PC12 cells. The series can be described thus: Reduction of Aβ-induced toxicity in PC12 cells (MTT assay). The format is cell-based, rat. To be noted: for effect on toxicity of aggregated Aβ in PC12 cells (cell viability, MTT): agent:Aβ40 4:1 (2 nmol : 0.5 nmol), aged 48 hours, cells 24 hours, FIG. 2B. How it is done: Prior to the addition of the SMOPs or soluble peptides to the cells, the extent of Aβ40 aggregation in each sample was determined by ThT assay as described above. On the day of the experiment, the medium was replaced with fresh medium (50 μl) and the aged samples (50 μ) were then diluted by a factor of two in the medium. Control wells received PBS (50 μl) only. Cells were incubated for an additional 24 hours and cell viability was then determined by the MTT assay as described above. Each experiment was performed in quadruplicate and repeated three times.
On the technique in general: Tetrazolium assays rely on reduction of a dye to a coloured formazan, in cell work by metabolically active cells.

Series [6] is described as follows: Administration of SMOP to rats to demonstrate safety. The format is in vivo. To be noted: intravenously via tail vein, from 100 μl to highest amount 200 µL, observed 2 weeks; BSA:KLVFF 1:500. As for the experimental part:
SMOPs modified with KLVFF (SEQ ID NO 1) (ratio of BSA:KLVFF (SEQ ID NO 1) of 1:500) were used in vivo for toxicological studies. Rats weighing about 250 g each were injected intravenously, via their tail vein, with increasing amounts of the SMOP starting from 100 μl and following an up-down protocol based on the outcome of the initial dose.

Square brackets hold non-standard residues; d marks the D form. Ends that are not written are not given here. Peptide text beside a SMILES is read from it. Nle = CCCC[C@H](N)C(=O)O

T1 sequence (P05067 672-711 limits assumed): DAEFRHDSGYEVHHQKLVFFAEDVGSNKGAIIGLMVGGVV
T2 sequence (P05067 672-711 limits assumed): as above

With “FVKLF-modified SMOPs: SMOPs formed with scrambled peptide FVKLFC-NH2 (SEQ ID NO 4); comparator in in vitro studies”, in series [1], the “effect on rate (kinetics) of Aβ aggregation” value was “no or little effect” and the “effect on Aβ aggregation (ThT fluorescence)” value was “no or little effect”. Besides, the “formation of Aβ40 fibrils (TEM)” value in series [2] is on record as “no inhibitory effect”. In addition, the “FITC-Aβ40 accumulated on the surface of the particles (fluorescent signal)” value in series [3] was “significantly lower amount of FITC-Aβ40 was accumulated”.

Regarding pertussis toxin [PTX], the “effect on uptake of aggregated FITC-Aβ by BV-2 cells” value in series [4] is recorded as “reduced the uptake of the aggregated Aβ”.

In the case of `CCCC[C@@H]1NC(=O)[C@@H](CC(C)C)NC(=O)[C@H](CCCCN)NC(=O)[C@@H](CO)NC(=O)[C@H](Cc2c[nH]cn2)NC(=O)[C@@H](Cc2c[nH]c3ccccc23)NC1=O` [[lJwHsK], Cyclo-D-leucine-L-noreucine-D-tryptophan-L-histidine-D-serine-L-lysine] (cyclo(K[dL][Nle][dW]H[dS])), the “reduction of Aβ-induced toxicity in PC12 cells (cyclic peptide)” value in series [5] is “effective in reducing Aβ-induced toxicity”. Moreover, the “effect on amyloid aggregation / formation (in words)” value in series [1] is listed as “drastic effect on amyloid aggregation”.

As for “KLVFF-modified SMOP: oil-filled spherical BSA particles with KLVFFC-NH2 (SEQ ID NO 3) attached via disulfide bonds, prepared by sonication”, the “effect on toxicity of aggregated Aβ in PC12 cells (cell viability, MTT)” value in series [5] is recorded as “significantly reduced”. In addition, in series [1], the “effect on rate (kinetics) of Aβ aggregation” value is recorded as “dramatically slowed the rate of Aβ aggregation” and the “effect on Aβ aggregation (ThT fluorescence)” value is listed as “significantly decreased the aggregation of Aβ in a dose-dependent manner”. In series [2], the “formation of Aβ40 fibrils (TEM)” value was “completely arrests the formation of fibrils”. Also, the “immediate toxicity in rats” value in series [6] was “did not cause immediate toxicity”. In series [3], the “FITC-Aβ40 accumulated on the surface of the particles (fluorescent signal)” value is listed as “intense fluorescent signals”.

With fucoidan, the “effect on uptake of aggregated FITC-Aβ by BV-2 cells” value in series [4] is reported as “reduced the uptake of the aggregated Aβ”.

Consider KLVFF-NH2, for which the “effect on toxicity of aggregated Aβ in PC12 cells (cell viability, MTT)” value in series [5] is listed as “little or no effect on toxicity”.
